Data set [1] deals with the molecule itself. Briefly: SEC; without ATP; proteins in disassembly buffer (1.5 M GuHCl), GuHCl removed by dialysis against reassembly buffer; analytical Superdex 200 10/300 GL; peak fractions by SDS-PAGE.
Data set [2] concerns the molecule itself. Briefly: SEC; SRPK2ΔS1/CpWT complex supplemented with 5 mM MgCl2 and 0.1 mM ATP; analytical Superdex 200 10/300 GL; void-volume peak also imaged by negative-stain EM. (In general: SEC sorts molecules by how far they enter the pores of the column.)
In the next data set the target is T1, His-tagged SRPK1WT (UniProt Q96SB4 1-655).
T1 construct: serine-arginine protein kinase 1 (SRPK1), wild type; Labelled on the His tag with RED-tris-NTA for MST; also called wild-type SRPK1; source: recombinant, purified; not shown: His tag, N-terminal, kept
T1 sequence (Q96SB4 whole entry): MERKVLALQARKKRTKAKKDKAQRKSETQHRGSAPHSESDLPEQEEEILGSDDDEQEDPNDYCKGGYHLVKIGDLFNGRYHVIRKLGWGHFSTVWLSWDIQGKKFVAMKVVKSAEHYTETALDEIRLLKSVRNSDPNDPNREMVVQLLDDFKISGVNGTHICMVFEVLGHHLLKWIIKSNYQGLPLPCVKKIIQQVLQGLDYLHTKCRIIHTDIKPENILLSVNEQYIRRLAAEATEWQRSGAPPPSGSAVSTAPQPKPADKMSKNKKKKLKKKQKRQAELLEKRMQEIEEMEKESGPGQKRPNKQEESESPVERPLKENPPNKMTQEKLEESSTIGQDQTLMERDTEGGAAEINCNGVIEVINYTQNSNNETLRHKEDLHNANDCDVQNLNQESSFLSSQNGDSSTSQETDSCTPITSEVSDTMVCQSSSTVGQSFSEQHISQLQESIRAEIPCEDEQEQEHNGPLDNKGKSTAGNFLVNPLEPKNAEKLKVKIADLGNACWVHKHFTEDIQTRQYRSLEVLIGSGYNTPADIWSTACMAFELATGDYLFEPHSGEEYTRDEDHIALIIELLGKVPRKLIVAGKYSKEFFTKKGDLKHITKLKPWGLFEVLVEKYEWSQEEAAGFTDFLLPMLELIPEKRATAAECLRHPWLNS
Nature of the data set: MST; 200 nM N-terminally His-tagged SRPK1/2 labelled with RED-tris-NTA as target; GST-CpY132A as ligand in 2-fold serial dilution from 20 μM to 0.61 nM; room temperature; Monolith NT.115, MST power 40%. The conditions noted are these: both partners purified.

Data set [3] deals with T2, His-tagged SRPK2WT (full-length SRPK2) (UniProt P78362 1-688).
T2 construct: serine-arginine protein kinase 2 (SRPK2), full length, wild type; Cloned in pET-15b; Labelled on the His tag with RED-tris-NTA for MST; also called His-SRPK2WT; wild-type SRPK2; source: E. coli BL21(DE3)pLysS, purified (Ni-NTA, SEC); not shown: His tag, N-terminal, kept
T2 sequence (P78362 whole entry): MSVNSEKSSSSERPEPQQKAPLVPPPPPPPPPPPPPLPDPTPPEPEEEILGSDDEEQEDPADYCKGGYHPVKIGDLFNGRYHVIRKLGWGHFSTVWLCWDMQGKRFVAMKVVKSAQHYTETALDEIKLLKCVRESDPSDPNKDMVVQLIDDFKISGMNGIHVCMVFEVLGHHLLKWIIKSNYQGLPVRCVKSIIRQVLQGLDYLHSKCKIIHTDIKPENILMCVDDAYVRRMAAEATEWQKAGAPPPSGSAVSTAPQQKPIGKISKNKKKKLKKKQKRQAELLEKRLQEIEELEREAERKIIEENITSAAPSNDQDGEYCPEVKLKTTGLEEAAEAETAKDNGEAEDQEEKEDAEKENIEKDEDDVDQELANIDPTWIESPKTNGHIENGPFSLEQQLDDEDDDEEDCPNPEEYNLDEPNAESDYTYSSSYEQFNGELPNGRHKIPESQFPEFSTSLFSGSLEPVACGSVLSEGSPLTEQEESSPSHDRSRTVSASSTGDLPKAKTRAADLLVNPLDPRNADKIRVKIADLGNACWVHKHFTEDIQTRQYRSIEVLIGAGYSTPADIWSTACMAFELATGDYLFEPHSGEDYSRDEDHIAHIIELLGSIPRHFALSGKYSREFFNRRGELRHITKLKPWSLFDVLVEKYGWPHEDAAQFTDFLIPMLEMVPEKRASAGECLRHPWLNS
The data set is described as above. The conditions noted are these: both partners purified.

B1: His-tagged CpWT (wild-type hepatitis B core protein) (natural protein)
chain: MDIDPYKEFGATVELLSFLPSDFFPSVRDLLDTASALYREALESPEHCSPHHTALRQAILCWGELMTLATWVGNNLEDPASRDLVVNYVNTNVGLKIRQLLWFHISCLTFGRETVLEYLVSFGVWIRTPPAYRPPNAPILSTLPETTVVRRRDRGRSPRRRTPSPRRRRSPSPRRRRSQSRESQC
notes: Hepatitis B virus core protein (Cp), subtype adw2, full length, wild type; Kept as a dimer in GuHCl; assembles into capsids (about 35 nm, typical of T = 4) when GuHCl or urea is dialysed away; The His tag is seen as extra density at the 3-fold vertices of the capsid maps; Cloned in pET-15b; also called His-CpWT; CpWT dimer; not shown: His tag, N-terminal, kept
Take B1: the binding result in data set [1] was “binds”.

B2: CpWT phosphorylated by SRPK2ΔS1 (after addition of ATP/Mg2+) (natural protein)
chain: MDIDPYKEFGATVELLSFLPSDFFPSVRDLLDTASALYREALESPEHCSPHHTALRQAILCWGELMTLATWVGNNLEDPASRDLVVNYVNTNVGLKIRQLLWFHISCLTFGRETVLEYLVSFGVWIRTPPAYRPPNAPILSTLPETTVVRRRDRGRSPRRRTPSPRRRRSPSPRRRRSQSRESQC
modifications: phosphorylated by SRPK2ΔS1 with ATP/Mg2+; sites and extent not stated for this sample
notes: Hepatitis B virus core protein (Cp), subtype adw2, full length, wild type; also called phosphorylated Cp; capsid formed after the addition of ATP/Mg2+; source: E. coli BL21(DE3)pLysS, purified; SRPK2ΔS1/CpWT complex supplemented with 5 mM MgCl2 and 0.1 mM ATP
For B2, in data set [2], the binding result is on record as “binds”.

B3: GST-tagged CpY132A (hepatitis B core protein with the mutation Y132A) (natural protein)
chain: MDIDPYKEFGATVELLSFLPSDFFPSVRDLLDTASALYREALESPEHCSPHHTALRQAILCWGELMTLATWVGNNLEDPASRDLVVNYVNTNVGLKIRQLLWFHISCLTFGRETVLEYLVSFGVWIRTPPAARPPNAPILSTLPETTVVRRRDRGRSPRRRTPSPRRRRSPSPRRRRSQSRESQC
notes: Hepatitis B virus core protein (Cp), subtype adw2, full length (assembly domain 1-149, ARD 150-185); Cloned in pGEX-4T-2; also called GST–CpY132A; GST-CpY132A; source: E. coli BL21(DE3)pLysS, purified (glutathione resin); not shown: GST, N-terminal, kept
In the case of B3, the values for the dissociation constant Kd (with His-tagged SRPK1WT; in data set [3]) were 83.6 nM and 101 nM, respectively.

The record behind these values is article PMC10878513, “SRPK2 Mediates HBV Core Protein Phosphorylation and Capsid Assembly via Docking Interaction” (PLOS Pathogens, 2024).
